Literature values as cited in publication PMC5413942.

Molecular target: FhuA Ton box peptide Ton box (Escherichia coli) (UniProt P06971)

TonB, sequence (P02929 whole entry): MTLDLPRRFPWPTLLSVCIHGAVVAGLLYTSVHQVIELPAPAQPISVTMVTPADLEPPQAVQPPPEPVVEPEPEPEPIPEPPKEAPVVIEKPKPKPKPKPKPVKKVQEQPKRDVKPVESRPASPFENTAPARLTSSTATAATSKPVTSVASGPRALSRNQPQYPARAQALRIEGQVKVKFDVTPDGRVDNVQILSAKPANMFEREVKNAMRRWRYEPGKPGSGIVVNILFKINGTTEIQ

- Kd: 36 µM
Substance: TonB (from UniProt P02929)
